Here are results for 42 sequences from the supplement of paper PMC11780869.

The data set has as its system Bacillus subtilis. As to the kind of experiment: cleaved RNA product abundance (RNA/gDNA barcode ratio) relative to median wild-type variant (ratio to wild type); higher = more accumulation of the downstream cleavage product. In outline: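 Cleaved product abundance for each construct is its RNA-to-gDNA barcode ratio, scaled to the median construct carrying the unmutated site. Cleaved RNA was isolated on a gel, reverse transcribed and barcode-sequenced, with genomic DNA barcodes sequenced alongside and UMIs collapsed. The reporters were truncated aprE or tetM mRNAs with barcoded, mutagenized RNase Y cleavage-site windows integrated into the B. subtilis chromosome, and cultures grew in LB at 37°C from OD600 0.0003 to 0.3.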

The mark [1] stands for this setting: experiment (reporter, strain, medium): exp 8a: truncated aprE reporter, strain BJT201 with 2% xylose (RNase J1 expressed), cleavage site: glnRA (positions -5 to +31 mutated).
The mark [2] stands for this setting: experiment (reporter, strain, medium): exp 4a: truncated aprE reporter, strain BJT201 with 2% xylose (RNase J1 expressed), cleavage site: cggR-gapA (positions -7 to +36 mutated).
[3] abbreviates: experiment (reporter, strain, medium): exp 2b: truncated aprE reporter, strain BJT200, cleavage site: cggR-gapA (positions -7 to +36 mutated).

For the sequence “CGACATGTCCCGCTTCTTTCATTAATCCGTTAGCAATCGTTTTGCTATATACATTTACCTTTTAAGAGGAGGAAT”, the “cleaved RNA product abundance” value under setting [1] amounted to 1.11.

“ACAGACGAAGGAGCCGCAACGAAGTTATTAAGGGATGAATAATCCTTCAATATAAATATCTCTCACTTATTTAAA”: the “cleaved RNA product abundance” value under setting [2] turned out to be 0.448.

For the sequence “CGACATGTCCCGCTTCTTTCATTAATCCGTTAGCAACTGGTTTGCTGTATACATTTACCTTTTAAGAGGAGGAAT”, the “cleaved RNA product abundance” value under setting [1] was found to be 0.0825.

On to “ACAGACGAAGGAGCCGCAAAGAAGTTATTAAGGGATGTGTAATCCCTCAATATAAATATCTCTCACTTATTTAAA”, for which the “cleaved RNA product abundance” value under setting [2] worked out at 0.526.

As to “ACAGACGAAGGAGCCGCAAAGAAGAAATTAAGGGATGAATAATCCCTCAATATAAATATCTCTCACTTATTTAAA”, the “cleaved RNA product abundance” value reads like this: under setting [3], 0.171; under setting [2], 0.185.

“ACAGACGAAGGAGCCGCAAAGAAGTTATTAAGGGACGAATAATCAATCAATATAAATATCTCTCACTTATTTAAA”: under setting [2], the “cleaved RNA product abundance” value amounted to 0.132.

For “ACAGACGAAGGAGCCGCAAAGTAGTTATTAAGGGATGAATAATCCCTCAATCTAAATATCTCTCACTTATTTAAA”, the “cleaved RNA product abundance” value under setting [2] amounted to 0.0783.

On to “CGACATGTCCCGCTTCTTTCATTAATCCGTTAGCAAATGTTATGCTATATACATTTACCTTTTAAGAGGAGGAAT”, for which the “cleaved RNA product abundance” value under setting [1] came out at 0.766.

Take “CGACATGTCCCGCTTCTTTCATTAATCCCTTAGCAACTGTTTTGCTATATACTTTTACCTTTTAAGAGGAGGAAT”: the “cleaved RNA product abundance” value under setting [1] was found to be 0.166.

With “ACAGACGAAGGAGCCGCAAAGAAGTTATTAAGGGATGAATAATCCCTAAATACAAATATCTCTCACTTATTTAAA”, the “cleaved RNA product abundance” value under setting [2] was determined as 0.0687.

As to “CGACATGTCCCGCTTCTTTCATTAATCCGTTAGCAACTTTTTTTCTATATACATTTACCTTTTAAGAGGAGGAAT”, under setting [1], the “cleaved RNA product abundance” value is 0.658.

Take “ACAGACGAAGGAGCCGCAAAGAAGTTATTAAGGGATTAAGAATCCCTCAATATAAATATCTCTCACTTATTTAAA”: the “cleaved RNA product abundance” value under setting [2] came to 1.06.

Consider “ACAGACGAAGGAGCCGCAAAGAAGTTATTAAGGGATGAATAAACACTCAATATAAATATCTCTCACTTATTTAAA”, for which the “cleaved RNA product abundance” value runs as follows: under setting [3], 0.0698; under setting [2], 0.172.

As to “CGACATGTCCCGCTTCTTTCATTAATCCGTTAGCAACTGTTTTTCTGTATACATTTACCTTTTAAGAGGAGGAAT”, the “cleaved RNA product abundance” value under setting [1] came out at 0.357.

With “ACAGACGAAGGAGCCGCAAAGAAATTATTAAGGGATGAATAATGCCTCAATATAAATATCTCTCACTTATTTAAA”, the “cleaved RNA product abundance” value by setting is: under setting [3], 0.172; under setting [2], 0.132.

Consider “ACAGACGAAGGAGCCGCAAAGAAGTTATTAAGGGATCAATAATCCCTCAAAATAAATATCTCTCACTTATTTAAA”, for which the “cleaved RNA product abundance” value worked out at 0.214 under setting [3] and 0.315 under setting [2].

As to “ACAGACGAAGGAGCCGCAAAATAGTTATTAAGGGATGAATAATCCCTCAATATAAATATCTCTCACTTATTTAAA”, the “cleaved RNA product abundance” value under setting [2] was found to be 0.703.

In the case of “CGACATGTCCCGCTTCTTTCATTAATCCCTTAGCAACTGTTTTCCTATATACATTTACCTTTTAAGAGGAGGAAT”, the “cleaved RNA product abundance” value under setting [1] turned out to be 0.214.

“ACAGACGAAGGAGCCGCAAAGAAGTTATTAAGGTATGAATAATCCCCCAATATAAATATCTCTCACTTATTTAAA”: under setting [2], the “cleaved RNA product abundance” value stood at 0.141.

As for “CGACATGTCCCGCTTCTTTCATTAATGCGTTAGCAACTGTTTTACTATATACATTTACCTTTTAAGAGGAGGAAT”, under setting [1], the “cleaved RNA product abundance” value was determined as 0.324.

For “CGACATGTCCCGCTTCTTTCATTAATCCGTTAGCAACTGATTTACTATATACATTTACCTTTTAAGAGGAGGAAT”, the “cleaved RNA product abundance” value under setting [1] is 0.502.

Take “ACAGACGAAGGAGCCGCAAAGAAGTTATTAAGGGATGACTAATCCCTCATTATAAATATCTCTCACTTATTTAAA”: the “cleaved RNA product abundance” value came to 0.155 under setting [3] and 0.208 under setting [2].

Consider “ACAGACGAAGGAGCCGCAAAGAAGTTATTAAAGGATGTATAATCCCTCAATATAAATATCTCTCACTTATTTAAA”, for which the “cleaved RNA product abundance” value under setting [2] came to 0.177.

As to “CGACATGTCCCGCTTCTTTCATTAATCCGTTAGCAACTGTTTTGCTATATATATTTACCCTTTAAGAGGAGGAAT”, the “cleaved RNA product abundance” value under setting [1] was determined as 0.959.

As to “ACAGACGAAGGAGCCGCAAAGAAGTTATTAAAGGATGAATAATCCCTCAATACAAATATCTCTCACTTATTTAAA”, the “cleaved RNA product abundance” value runs as follows: under setting [3], 0.126; under setting [2], 0.0875.

Regarding “ACAGACGAAGGAGCCGCAAAGAAGTTATTAAGGGATGAATAATCGCTCAATATTAATATCTCTCACTTATTTAAA”, the “cleaved RNA product abundance” value under setting [3] worked out at 0.0992.

As for “ACAGACGAAGGAGCCGCAAAGAACTTATTAAGGGATGAATAATCCCTCAATATAAATATTTCTCACTTATTTAAA”, under setting [2], the “cleaved RNA product abundance” value was 0.307.

For the sequence “ACAGACGAAGGAGCCGCAAAGAAGTTATTAAGGGATGAATAATCCCACAAGATAAATATCTCTCACTTATTTAAA”, the “cleaved RNA product abundance” value worked out at 0.158 under setting [3] and 0.187 under setting [2].

Turning to “ACAGACGAAGGAGCCGCAAAGAAGTTATTAAGGAATGAATAATCCCTAAATATAAATATCTCTCACTTATTTAAA”, the “cleaved RNA product abundance” value under setting [3] came to 0.152 and the “cleaved RNA product abundance” value under setting [2] worked out at 0.147.

As for “CGACATGTCCCGCTTCTTTCATTAATCCGTTAGCTACTGTTTTGCTATATGCATTTACCTTTTAAGAGGAGGAAT”, the “cleaved RNA product abundance” value under setting [1] was found to be 0.368.

“ACAGACGAAGGAGCCGCAAAGAAGTTATTAAGGGCTGAATAATCCATCAATATAAATATCTCTCACTTATTTAAA”: the “cleaved RNA product abundance” value runs as follows: under setting [3], 0.084; under setting [2], 0.0979.

Regarding “CGACATGTCCCGCTTCTTTCATTACTCCGTTAGCTACTGTTTTGCTATATACATTTACCTTTTAAGAGGAGGAAT”, the “cleaved RNA product abundance” value under setting [1] came out at 0.923.

Turning to “ACAGACGAAGGAGCCGCAAAGAAGTTATTAAGGGATGAATGATCCCTCAATCTAAATATCTCTCACTTATTTAAA”, the “cleaved RNA product abundance” value under setting [2] is 0.0934.

Take “CGACATGTCCCGCTTCTTTCATTAATCCGTTAGAAACTGTTTTACTATATACATTTACCTTTTAAGAGGAGGAAT”: the “cleaved RNA product abundance” value under setting [1] was determined as 0.422.

On to “ACAGACGAAGGAGCCGCAAAGAAGTAATTAAGGGATAAATAATCCCTCAATATAAATATCTCTCACTTATTTAAA”, for which the “cleaved RNA product abundance” value is, setting by setting: under setting [3], 0.256; under setting [2], 0.219.

As for “ACAGACGAAGGAGCCGCAAAGAACTGATTAAGGGATGAATAATCCCTCAATATAAATATCTCTCACTTATTTAAA”, under setting [2], the “cleaved RNA product abundance” value turned out to be 0.238.

In the case of “ACAGACGAAGGAGCCGCAAAGAACTTATTAAGGGATGAATAATCCGTCAATATAAATATCTCTCACTTATTTAAA”, the “cleaved RNA product abundance” value under setting [2] was found to be 0.155.

Take “CGACATGTCCCGCTTCTTTCATTAATCCGTTTGCAACTGTTTTGCTATATACATTTACCATTTAAGAGGAGGAAT”: under setting [1], the “cleaved RNA product abundance” value is 0.88.

In the case of “ACAGACGAAGGAGCCGCAAAGAAGTTTTTAAGGGATGAAAAATCCCTCAATATAAATATCTCTCACTTATTTAAA”, the “cleaved RNA product abundance” value under setting [2] was 0.293.

As for “ACAGACGAAGGAGCCGCAAAGAATTTATTAAGGCATGAATAATCCCTCTATATAAATATCTCTCACTTATTTAAA”, the “cleaved RNA product abundance” value under setting [2] is 0.107.

In the case of “CGACATGTCCCGCTTCTTTCATTAATCCGTTAGCAAGTGTTTTGCTTTATACATTTACCTTTTAAGAGGAGGAAT”, the “cleaved RNA product abundance” value under setting [1] was determined as 0.474.

Take “ACAGACGAAGGAGCCGCAAAGAAGTTATTAAGGGATGAATAATCCATCAATATAAATATCTCTCACTTATTTAAA”: the “cleaved RNA product abundance” value under setting [3] was 0.184; the “cleaved RNA product abundance” value under setting [2] was 0.23; the “cleaved RNA product abundance” value (experiment (reporter, strain, medium): exp 6: tetM reporter, strain 168, cleavage site: cggR-gapA (positions -7 to +36 mutated)) is 0.201.
